US20230265179A1 (TWIST BIOSCIENCE, published 2023)
Positions count from the first letter of the chain named.

T1: IL1RL1 over-expressed on Expi293 cells (UniProt Q01638 19-556, limits assumed)
T1 construct: whole, on cells; Target of the flow cytometry MFI ratio (over-expressing cells over parent cells); also called cytokine over-expressing Expi293 cells
T1 sequence (looked up): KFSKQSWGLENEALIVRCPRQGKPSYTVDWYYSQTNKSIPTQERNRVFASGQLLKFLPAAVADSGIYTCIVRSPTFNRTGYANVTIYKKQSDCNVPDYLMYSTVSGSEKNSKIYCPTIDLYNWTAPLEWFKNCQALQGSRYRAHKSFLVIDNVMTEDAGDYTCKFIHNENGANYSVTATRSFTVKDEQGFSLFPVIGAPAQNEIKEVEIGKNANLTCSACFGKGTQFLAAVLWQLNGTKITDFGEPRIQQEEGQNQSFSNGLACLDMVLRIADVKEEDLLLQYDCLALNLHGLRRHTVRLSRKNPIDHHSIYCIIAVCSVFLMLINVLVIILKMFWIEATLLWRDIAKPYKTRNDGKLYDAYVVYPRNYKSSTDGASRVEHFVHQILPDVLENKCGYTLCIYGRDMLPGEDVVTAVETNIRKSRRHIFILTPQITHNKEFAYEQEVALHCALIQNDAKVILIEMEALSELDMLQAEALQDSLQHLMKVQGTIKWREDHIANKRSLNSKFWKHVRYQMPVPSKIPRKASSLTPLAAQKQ

T2: IL1RL1 (UniProt Q01638 19-328, limits assumed)
T2 construct: SPR analyte
T2 sequence (looked up): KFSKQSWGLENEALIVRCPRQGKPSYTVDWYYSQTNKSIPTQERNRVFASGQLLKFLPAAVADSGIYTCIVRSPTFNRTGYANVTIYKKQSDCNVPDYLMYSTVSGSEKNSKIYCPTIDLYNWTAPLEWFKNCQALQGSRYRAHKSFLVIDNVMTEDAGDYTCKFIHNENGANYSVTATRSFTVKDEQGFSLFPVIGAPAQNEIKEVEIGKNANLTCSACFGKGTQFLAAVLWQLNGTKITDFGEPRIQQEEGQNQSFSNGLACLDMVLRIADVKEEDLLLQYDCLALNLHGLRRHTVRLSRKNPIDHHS

B1: IL1RL1-49 (Fc fusion, not shown: a dimerising Fc or GST)
VHH: EVQLVESGGGLVQPGGSLRLSCAASGRTVTMGWFRQAPGKEREFVAGINWESGSTDYADSVKGRFTISADNSKNTAYLQMNSLKPEDTAVYYCAALALGTDQSSTFDWGQGTLVTVSS
notes: VHH-Fc on IgG2 Fc
B2: IL1RL1-20 (Fc fusion, not shown: a dimerising Fc or GST)
VHH: EVQLVESGGGLVQPGGSLRLSCAASGFSLDDRVMGWFRQAPGKEREFVAGITLGGSTSYADSVKGRFTISADNSKNTAYLQMNSLKPEDTAVYYCAAAPVPWGTRPSLLTYDWGQGTLVTVSS
notes: VHH-Fc on IgG2 Fc
B3: IL1RL1-44 (Fc fusion, not shown: a dimerising Fc or GST)
VHH: EVQLVESGGGLVQPGGSLRLSCAASGDYYAMGWFRQAPGKEREWVSSIGIAGTPTFYADSVKGRFTISADNSKNTAYLQMNSLKPEDTAVYYCAANVGVTGSYEWGQGTLVTVSS
notes: VHH-Fc on IgG2 Fc
B4: IL1RL1-23 (Fc fusion, not shown: a dimerising Fc or GST)
VHH: EVQLVESGGGLVQPGGSLRLSCAASGRTFSTASMGWFRQAPGKEREWVASISTSGSTITPYADSVKGRFTISADNSKNTAYLQMNSLKPEDTAVYYCAVVDLLRGKLWGQGTLVTVSS
notes: VHH-Fc on IgG2 Fc
B5: IL1RL1-26 (Fc fusion, not shown: a dimerising Fc or GST)
VHH: EVQLVESGGGLVQPGGSLRLSCAASGLTTVYTMGWFRQAPGKERESVASISWTGGTTYYADSVKGRFTISADNSKNTAYLQMNSLKPEDTAVYYCAAIAHEEGVYRWDWGQGTLVTVSS
notes: VHH-Fc on IgG2 Fc
B6: IL1RL1-19 (Fc fusion, not shown: a dimerising Fc or GST)
VHH: EVQLVESGGGLVQPGGSLRLSCAASGRTDSTASMGWFRQAPGKEREEVAAISWSGGRTYYADSVKGRFTISADNSKNTAYLQMNSLKPEDTAVYYCARLAFQGNTVFDLWGQGTLVTVSS
notes: VHH-Fc on IgG2 Fc
B7: IL1RL1-92 (Fc fusion, not shown: a dimerising Fc or GST)
VHH: B6 VHH with D29H
notes: VHH-Fc on IgG2 Fc
B8: IL1RL1-47 (Fc fusion, not shown: a dimerising Fc or GST)
VHH: EVQLVESGGGLVQPGGSLRLSCAASGRTFSMGWFRQAPGKEREWVASISTSGSTITPYADSVKGRFTISADNSKNTAYLQMNSLKPEDTAVYYCAAQGSLYDDYDGLPIKYDWGQGTLVTVSS
notes: VHH-Fc on IgG2 Fc
B9: IL1RL1-63 (Fc fusion, not shown: a dimerising Fc or GST)
VHH: EVQLVESGGGLVQPGGSLRLSCAASGRTLSSIYAMGWFRQAPGKEREGVAAIYSGGITTYADSVKGRFTISADNSKNTAYLQMNSLKPEDTAVYYCAAFDGYSGSDWGQGTLVTVSS
B10: IL1RL1-17 (Fc fusion, not shown: a dimerising Fc or GST)
VHH: EVQLVESGGGLVQPGGSLRLSCAASGRDLDYYAMGWFRQAPGKEREWVSSIGIAGTPTFYADSVKGRFTISADNSKNTAYLQMNSLKPEDTAVYYCAVVDLLRGKLWGQGTLVTVSS
notes: VHH-Fc on IgG2 Fc
B11: IL1RL1-46 (Fc fusion, not shown: a dimerising Fc or GST)
VHH: EVQLVESGGGLVQPGGSLRLSCAASGFTFSDIAMGWFRQAPGKEREFVAAINWSGGSTKYADSVKGRFTISADNSKNTAYLQMNSLKPEDTAVYYCAYSGIGTDWGQGTLVTVSS
notes: VHH-Fc on IgG2 Fc
B12: IL1RL1-22 (Fc fusion, not shown: a dimerising Fc or GST)
VHH: EVQLVESGGGLVQPGGSLRLSCAASGRTSNIYAMGWFRQAPGKEREWVASISTSGSTITPYADSVKGRFTISADNSKNTAYLQMNSLKPEDTAVYYCAIAHGSSTYNWGQGTLVTVSS
B13: IL1RL1-39 (Fc fusion, not shown: a dimerising Fc or GST)
VHH: EVQLVESGGGLVQPGGSLRLSCAASGGTFSVYAMGWFRQAPGKEREAVASISTSGGSTYYADSVKGRFTISADNSKNTAYLQMNSLKPEDTAVYYCAIGGTLYDRRRFEWGQGTLVTVSS
notes: VHH-Fc on IgG2 Fc
B14: IL1RL1-21 (Fc fusion, not shown: a dimerising Fc or GST)
VHH: EVQLVESGGGLVQPGGSLRLSCAASGTITSAVFMGWFRQAPGKEREFVAGIIGSGGATYYADSVKGRFTISADNSKNTAYLQMNSLKPEDTAVYYCAASRYARERDVHAYDWGQGTLVTVSS
notes: VHH-Fc on IgG2 Fc
B15: IL1RL1-57 (Fc fusion, not shown: a dimerising Fc or GST)
VHH: EVQLVESGGGLVQPGGSLRLSCAASGDIGSINSMGWFRQAPGKEREFLASVSWGFGSTYYADSVKGRFTISADNSKNTAYLQMNSLKPEDTAVYYCAVNRLLYYSSGYYQTSVDWGQGTLVTVSS
notes: VHH-Fc on IgG2 Fc
B16: IL1RL1-24 (Fc fusion, not shown: a dimerising Fc or GST)
VHH: EVQLVESGGGLVQPGGSLRLSCAASGGTAYAMGWFRQAPGKEREWVASISTSGSTITPYADSVKGRFTISADNSKNTAYLQMNSLKPEDTAVYYCAAASRSGSGYDWGQGTLVTVSS
notes: VHH-Fc on IgG2 Fc
B17: IL1RL1-59 (Fc fusion, not shown: a dimerising Fc or GST)
VHH: B16 VHH with A98N, S99V, R100G, S101V, G102T, S103G, G104S, D106E
notes: VHH-Fc on IgG2 Fc
B18: IL1RL1-27 (Fc fusion, not shown: a dimerising Fc or GST)
VHH: EVQLVESGGGLVQPGGSLRLSCAASGGTISTYAIGWFRQAPGKEREGVAAISPGNNTHYADSVKGRFTISADNSKNTAYLQMNSLKPEDTAVYYCAARPVRVDDISLPVGFDWGQGTLVTVSS
notes: VHH-Fc on IgG2 Fc
B19: IL1RL1-40 (Fc fusion, not shown: a dimerising Fc or GST)
VHH: EVQLVESGGGLVQPGGSLRLSCAASGRTFSDYVMGWFRQAPGKEREIVAAIAWTGTTDYADSVKGRFTISADNSKNTAYLQMNSLKPEDTAVYYCAARIRGKVTVDNFDYAWGQGTLVTVSS
notes: VHH-Fc on IgG2 Fc
B20: IL1RL1-54 (Fc fusion, not shown: a dimerising Fc or GST)
VHH: EVQLVESGGGLVQPGGSLRLSCAASGNIPPINAMGWFRQAPGKEREWVASISTSGSTITPYADSVKGRFTISADNSKNTAYLQMNSLKPEDTAVYYCAARSGWSGQYDWGQGTLVTVSS
notes: VHH-Fc on IgG2 Fc
B21: IL1RL1-45 (Fc fusion, not shown: a dimerising Fc or GST)
VHH: EVQLVESGGGLVQPGGSLRLSCAASGRTLSSYTMGWFRQAPGKEREFVAGIWSGGYTHYADSVKGRFTISADNSKNTAYLQMNSLKPEDTAVYYCAAVSSNSETFDWGQGTLVTVSS
notes: VHH-Fc on IgG2 Fc
B22: IL1RL1-83 (Fc fusion, not shown: a dimerising Fc or GST)
VHH: B21 VHH with T28S, L29I, S31D
notes: VHH-Fc on IgG2 Fc
B23: IL1RL1-73 (Fc fusion, not shown: a dimerising Fc or GST)
VHH: EVQLVESGGGLVQPGGSLRLSCAASGDISSIVAMGWFRQAPGKEREWVSSIGIAGTPTFYADSVKGRFTISADNSKNTAYLQMNSLKPEDTAVYYCAGRSIGVDDMPYVWGQGTLVTVSS
notes: VHH-Fc on IgG2 Fc
B24: IL1RL1-25 (Fc fusion, not shown: a dimerising Fc or GST)
VHH: EVQLVESGGGLVQPGGSLRLSCAASGGTFNGRAMGWFRQAPGKEREGVATINSGGGTNYADSVKGRFTISADNSKNTAYLQMNSLKPEDTAVYYCALRRLSPPPLLDWGQGTLVTVSS
notes: VHH-Fc on IgG2 Fc

These binders were tested against T1, IL1RL1 over-expressed on Expi293 cells (assay: flow cytometry, 100 nM antibody, over-expressing Expi293 / parent cells).
Experimental: All incubations and washes were in buffer containing PBS+1% BSA. MFI Ratio is defined by the mean fluorescence intensity (MFI) of the cytokine over-expressing Expi293 cell over the Expi293 parent cell. […] EC50 was calculated in GraphPad Prism.

Row | Binder | 100 nM FACS (MFI Ratio)
1 | B1 | 248 MFI ratio
2 | B2 | 396 MFI ratio
3 | B3 | 448 MFI ratio
4 | B4 | 526 MFI ratio
5 | B5 | 310 MFI ratio
6 | B6 | 486 MFI ratio
7 | B7 | 484 MFI ratio
8 | B8 | 467 MFI ratio
9 | B9 | 451 MFI ratio
10 | B10 | 415 MFI ratio
11 | B11 | 300 MFI ratio
12 | B12 | 294 MFI ratio
13 | B13 | 267 MFI ratio
14 | B14 | 521 MFI ratio
15 | B15 | 282 MFI ratio
16 | B16 | 438 MFI ratio
17 | B17 | 374 MFI ratio
18 | B18 | 450 MFI ratio
19 | B19 | 415 MFI ratio
20 | B20 | 500 MFI ratio
21 | B21 | 704 MFI ratio
22 | B22 | 628 MFI ratio
23 | B23 | 463 MFI ratio
24 | B24 | 69.5 MFI ratio

These binders were tested against T2, IL1RL1 (assay: SPR (Carterra LSA), antibody amine-coupled, 1:1 model;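 also: HC30M sensor chip at 25 °C in HBS-TE, analyte at rising concentrations in buffer containing 0.5 mg/mL BSA, 5 min association then 15 min dissociation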).
Experimental: SPR experiments were performed on a Carterra LSA SPR biosensor equipped with a HC30M chip at 25° C. in HBS-TE. Antibodies were diluted to 10 μg/mL and amine-coupled to the sensor chip by EDC/NHS activation, followed by ethanolamine HCl quenching. Increasing concentrations of analyte were flowed over the sensor chip in HBS-TE with 0.5 mg/mL BSA with 5-minute association and 15-minute dissociation. Following each injection cycle the surface was regenerated with 2× 30-second injections of IgG elution buffer (Thermo). Data were analyzed in Carterra's Kinetics Tool software with 1:1 binding model.

Row | Binder | Kd | koff | kon
25 | B1 | 2.42 nM | 0.000673 s⁻¹ | 277000 M⁻¹ s⁻¹
26 | B2 | 0.302 nM | 2.92e-05 s⁻¹ | 96600 M⁻¹ s⁻¹
27 | B3 | ≤ 0.016 nM | ≤ 1e-05 s⁻¹ | 626000 M⁻¹ s⁻¹
28 | B4 | ≤ 0.188 nM | ≤ 1e-05 s⁻¹ | 53100 M⁻¹ s⁻¹
29 | B5 | 3.12 nM | 0.000618 s⁻¹ | 198000 M⁻¹ s⁻¹
30 | B6 | 0.104 nM | 1.29e-05 s⁻¹ | 123000 M⁻¹ s⁻¹
31 | B7 | 4.4 nM | 0.000619 s⁻¹ | 141000 M⁻¹ s⁻¹
32 | B8 | 4.73 nM | 0.00031 s⁻¹ | 65600 M⁻¹ s⁻¹
33 | B9 | 0.153 nM | 3.16e-05 s⁻¹ | 207000 M⁻¹ s⁻¹
34 | B10 | 2.76 nM | 0.000588 s⁻¹ | 213000 M⁻¹ s⁻¹
35 | B11 | 3.06 nM | 0.000553 s⁻¹ | 181000 M⁻¹ s⁻¹
36 | B12 | 1.36 nM | 0.000243 s⁻¹ | 179000 M⁻¹ s⁻¹
37 | B13 | 0.688 nM | 5.5e-05 s⁻¹ | 80000 M⁻¹ s⁻¹
38 | B14 | 0.409 nM | 5.04e-05 s⁻¹ | 123000 M⁻¹ s⁻¹
39 | B15 | 1.73 nM | 0.000364 s⁻¹ | 211000 M⁻¹ s⁻¹
40 | B16 | 1.62 nM | 0.000232 s⁻¹ | 143000 M⁻¹ s⁻¹
41 | B17 | ≤ 0.0748 nM | ≤ 1e-05 s⁻¹ | 134000 M⁻¹ s⁻¹
42 | B18 | 3.7 nM | 0.000372 s⁻¹ | 101000 M⁻¹ s⁻¹
43 | B19 | 7.31 nM | 0.00116 s⁻¹ | 159000 M⁻¹ s⁻¹
44 | B20 | 0.516 nM | 9.06e-05 s⁻¹ | 176000 M⁻¹ s⁻¹
45 | B21 | 1.19 nM | 0.000326 s⁻¹ | 275000 M⁻¹ s⁻¹
46 | B22 | 1.2 nM | 0.00016 s⁻¹ | 134000 M⁻¹ s⁻¹
47 | B23 | 2.06 nM | 0.000362 s⁻¹ | 176000 M⁻¹ s⁻¹
48 | B24 | 1.47 nM | 0.000392 s⁻¹ | 267000 M⁻¹ s⁻¹
